Measurements reported in article PMC7510951 (Cancer research, 2020).

Target: T1, 6xHis-EYA2 ED (human EYA2 residues 253-538) (human, UniProt O00167 253-538)
T1 sequence (looked up): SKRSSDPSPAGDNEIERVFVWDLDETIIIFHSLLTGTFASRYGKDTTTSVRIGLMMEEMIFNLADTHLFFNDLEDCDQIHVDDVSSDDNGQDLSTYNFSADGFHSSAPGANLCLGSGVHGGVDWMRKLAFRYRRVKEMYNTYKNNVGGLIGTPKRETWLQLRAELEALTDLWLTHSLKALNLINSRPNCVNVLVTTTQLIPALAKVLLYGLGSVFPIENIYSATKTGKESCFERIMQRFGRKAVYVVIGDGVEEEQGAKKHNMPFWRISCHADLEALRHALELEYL
Assay: AlphaScreen or HTRF

B1: GST-SIX1 (human SIX1 residues 1-259) (domain or fragment, UniProt Q15475 1-259, looked up)
chain: MSMLPSFGFTQEQVACVCEVLQQGGNLERLGRFLWSLPACDHLHKNESVLKAKAVVAFHRGNFRELYKILESHQFSPHNHPKLQQLWLKAHYVEAEKLRGRPLGAVGKYRVRRKFPLPRTIWDGEETSYCFKEKSRGVLREWYAHNPYPSPREKRELAEATGLTTTQVSNWFKNRRQRDRAAEAKERENTENNNSSSNKQNQLSPLEGGKPLMSSSEEEFSPPQSPDQNSVLLLQGNMGHARSSNYSLPGLTASQPSHG
B1: binds.
